The values below come from US20240262905A1 (PANDION OPERATIONS, published 2024).

Assay [1] concerns the target PD-1 on PD-1 reporter Jurkat cells (human, UniProt Q15116 25-288). The experiment in a line: cell-based or functional assay.
Assay [2] has as its target T1, mouse PD-1 (mouse, UniProt Q02242 25-167, limits assumed).
T1 sequence (looked up): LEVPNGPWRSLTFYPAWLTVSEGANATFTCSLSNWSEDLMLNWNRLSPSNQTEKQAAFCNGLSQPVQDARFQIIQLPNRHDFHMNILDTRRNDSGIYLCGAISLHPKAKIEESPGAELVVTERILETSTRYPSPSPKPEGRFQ
The experiment in a line: no binding assay described; said in the vitiligo mouse model example.

The target of assay [3] is T2, human DSG-3 (human, UniProt P32926 50-615, limits assumed).
T2 construct: Soluble analyte (Octet) and plate coat (ELISA); also called hDSG-3
T2 sequence (looked up): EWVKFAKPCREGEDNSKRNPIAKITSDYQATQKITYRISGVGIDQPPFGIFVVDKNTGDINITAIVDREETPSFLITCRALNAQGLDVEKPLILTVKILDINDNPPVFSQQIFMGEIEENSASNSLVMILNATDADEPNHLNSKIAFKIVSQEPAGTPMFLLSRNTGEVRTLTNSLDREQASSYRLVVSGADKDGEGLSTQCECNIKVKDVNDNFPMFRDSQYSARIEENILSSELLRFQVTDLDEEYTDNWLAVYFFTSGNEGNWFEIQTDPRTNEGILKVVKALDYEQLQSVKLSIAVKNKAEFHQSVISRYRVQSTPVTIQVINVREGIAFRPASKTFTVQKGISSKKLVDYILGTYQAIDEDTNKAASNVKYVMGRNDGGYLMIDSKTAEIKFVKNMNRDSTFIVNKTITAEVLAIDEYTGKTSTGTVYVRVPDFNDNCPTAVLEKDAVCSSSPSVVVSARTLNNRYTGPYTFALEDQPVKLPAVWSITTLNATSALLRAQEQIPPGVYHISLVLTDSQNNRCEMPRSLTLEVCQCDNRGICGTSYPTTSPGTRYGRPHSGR
The experiment in a line: BLI (Octet), test article captured on anti-human Fc biosensors, human DSG-3 as analyte, 1:1 global fit. For orientation: BLI is a label-free optical method that tracks binding on a fibre tip over time.
Procedure: Anti-human Fc biosensors were equilibrated in assay buffer (PBS, pH 7.4 with 1% BSA, and 0.05% Tween-20) for 30 minutes before the experiment was set-up. Test articles were diluted to 5 ug/mL in assay buffer. A two-fold, seven-point dilution of human DSG-3 (starting at 300 nM as the highest concentration) was made. Test articles were captured using anti-human Fc biosensors for 180 s. Biosensors loaded with test articles were equilibrated in assay buffer for 120 s; association was performed for 180 seconds and dissociation was performed for 300 s. Kinetic parameters (kon and kdis) and dissociation constant (KD) were calculated from a 1:1 global fit model using the data analysis software of the Octet96 RED software version 10.

In general, Kd refers to the concentration at which binding is half-saturated. Lower therefore signals higher affinity. Broadly, the koff is a measure of how fast the partners let go of each other. Low readings indicate slow dissociation, high ones fast dissociation.

Sequence of PD-1 on PD-1 reporter Jurkat cells (Q15116 25-288): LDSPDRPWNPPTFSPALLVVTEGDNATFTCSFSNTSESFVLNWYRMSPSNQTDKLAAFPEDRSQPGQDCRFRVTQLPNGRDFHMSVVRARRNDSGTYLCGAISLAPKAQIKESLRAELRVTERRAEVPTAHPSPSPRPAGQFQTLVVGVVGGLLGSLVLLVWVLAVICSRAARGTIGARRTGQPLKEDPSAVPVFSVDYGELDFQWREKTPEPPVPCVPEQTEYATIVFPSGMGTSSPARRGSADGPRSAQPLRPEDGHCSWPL

B1: PD1DSGAB9 (bispecific antibody)
heavy: EVQLLESGGGLVQPGGSLRLSCAASGFTFSNSDMSWVRQAPGKGLEWVSGITISGGSTYYADSVKGRFTISRDNSKNTLYLQMNSLRAEDTAVYYCARGRGGSGWLDYWGQGTLVTVSSASTKGPSVFPLAPSSKSTSGGTAALGCLVKDYFPEPVTVSWNSGALTSGVHTFPAVLQSSGLYSLSSVVTVPSSSLGTQTYICNVNHKPSNTKVDKKVEPKSCDKTHTCPPCPAPEAAGAPSVFLFPPKPKDTLMISRTPEVTCVVVDVSHEDPEVKFNWYVDGVEVHNAKTKPREEQYNSTYRVVSVLTVLHQDWLNGKEYKCKVSNKALPAPIEKTISKAKGQPREPQVYTLPPSREEMTKNQVSLTCLVKGFYPSDIAVEWESNGQPENNYKTTPPVLDSDGSFFLYSKLTVDKSRWQQGNVFSCSVMHEALHNHYTQKSLSLSPGGGGGSGGGGSGGGGSQSVLTQPPSVSGTPGQRVTISCSGSSSHIGSNYVYWYQQLPGTAPKILIYSNDQRPAGVPDRFSASKSGTSASLAISGLRSEDEADYYCAAWDDGQGGVFGGGTKLTVLGGGGSGGGGSGGGGSGGGGSQVQLQESGPGPVKPSGTLSLTCGVSGGSISSNHWWTWVRQPPGKGLEWIGEIYHNGSTFLNPSLKSRVTISVDKSNNQFSLKLTSVTAADTAVYYCARGWHRTGFRGYPSHWYFDLWGRGTLVSVSS
light: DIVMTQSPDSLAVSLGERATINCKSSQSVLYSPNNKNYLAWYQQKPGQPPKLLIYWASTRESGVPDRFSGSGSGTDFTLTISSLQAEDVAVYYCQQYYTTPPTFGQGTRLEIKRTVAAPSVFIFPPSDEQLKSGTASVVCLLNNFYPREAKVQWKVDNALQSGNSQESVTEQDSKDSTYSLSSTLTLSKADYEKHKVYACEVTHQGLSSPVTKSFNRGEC
notes: also called PD1DS91; copies: 2 + 2
For B1, in assay [1], the “SHP-2 recruitment in PD-1 reporter Jurkat cells (test article on anti-human IgG coated plate), EC50 at 2 hours” value turned out to be 21.2 nM and the “SHP-2 recruitment in PD-1 reporter Jurkat cells (test article on anti-human IgG coated plate), EC50 at 24 hours” value was 16.6 nM. For the same molecule, the binding result in assay [2] is given as “no binding”. Further, in assay [3], the Kd stood at 29 nM and the koff was found to be 0.000757 s⁻¹.
